From PMC4355278 (Journal of molecular biology, 2015)

Assays:
Pex1/Pex6 complex = Pex1/Pex6 complex (Saccharomyces cerevisiae, UniProt P24004); assay: ATPase assay
SEC = target: the molecule itself; assay: SEC

B1: Pex15 cytosolic domain (protein)
chain: MAASEIMNNLPMHSLDSSLRDLLNDDLFIESDESTKSVNDQRSEVFQECVNLFIKRDIKDCLEKMSEVGFIDITVFKSNPMILDLFVSACDIMPSFTKLGLTLQSEILNIFTLDTPQCIETRKIILGDLSKLLVINKFFRCCIKVIQFNLTDHTEQEEKTLELESIMSDFIFVYITKMRTTIDVVGLQELIEIFIFQVKVKLHHKKPSPNMYWALCKTLPKLSPTLKGLYLSKDVSIEDAILNSIDNKIQKDKAKSKGKQRGVKQKIHHFHEPMLHNSSEEQVKVEDAFNQRTSTDSRLQSTGTAPRKKNNDITVLAGSFWAVLKHHFTRS
Kd (Pex1/Pex6 complex): 185 nM

B2: Pex1-FLAG (recombinant) (natural protein, S. cerevisiae, UniProt P24004 1-1043, looked up)
chain: MTTTKRLKFENLRIQFSNAIVGNFLRLPHSIINVLESTNYAIQEFGIAVHSHNSDIPIVHLGWDGHDSGSSENVVLINPVLATVYDLNQKSPLVDLYIQRYDHTHLATEVYVTPETSDDWEIIDANAMRFQNGEILHQTRIVTPGETLICYLEGIVTKFKIDRVEPSMKSARITDGSLVVVAPKVNKTRLVKAEYGHSNKTILKNGAIQLLKKVILRSTVCKMDFPKDNLFVVYISDGAQLPSQKGYASIVKCSLRQSKKSDSDNKSVGIPSKKIGVFIKCDSQIPENHIALSSHLWDAFFTHPMNGAKIKLEFLQMNQANIISGRNATVNIKYFGKDVPTKSGDQYSKLLGGSLLTNNLILPTEQIIIEIKKGESEQQLCNLNEISNESVQWKVTQMGKEEVKDIIERHLPKHYHVKETGEVSRTSKDEDDFITVNSIKKEMVNYLTSPIIATPAIILDGKQGIGKTRLLKELINEVEKDHHIFVKYADCETLHETSNLDKTQKLIMEWCSFCYWYGPSLIVLDNVEALFGKPQANDGDPSNNGQWDNASKLLNFFINQVTKIFNKDNKRIRVLFSGKQKTQINPLLFDKHFVSETWSLRAPDKHARAKLLEYFFSKNQIMKLNRDLQFSDLSLETEGFSPLDLEIFTEKIFYDLQLERDCDNVVTRELFSKSLSAFTPSALRGVKLTKETNIKWGDIGALANAKDVLLETLEWPTKYEPIFVNCPLRLRSGILLYGYPGCGKTLLASAVAQQCGLNFISVKGPEILNKFIGASEQNIRELFERAQSVKPCILFFDEFDSIAPKRGHDSTGVTDRVVNQLLTQMDGAEGLDGVYILAATSRPDLIDSALLRPGRLDKSVICNIPTESERLDILQAIVNSKDKDTGQKKFALEKNADLKLIAEKTAGFSGADLQGLCYNAYLKSVHRWLSAADQSEVVPGNDNIEYFSINEHGRREENRLRLKTLLQQDVVHETKTSTSAASELTAVVTINDLLEACQETKPSISTSELVKLRGIYDRFQKDRNGEMPNGENSIDIGSRLSLM
binding result (SEC): binds
